Experimental data published in IntAct's records for PubMed 26766587.

B1: N-myc proto-oncogene protein (Homo sapiens), P04198 (parent)
chain: MPSCSTSTMPGMICKNPDLEFDSLQPCFYPDEDDFYFGGPDSTPPGEDIWKKFELLPTPPLSPSRGFAEHSSEPPSWVTEMLLENELWGSPAEEDAFGLGGLGGLTPNPVILQDCMWSGFSAREKLERAVSEKLQHGRGPPTAGSTAQSPGAGAASPAGRGHGGAAGAGRAGAALPAELAHPAAECVDPAVVFPFPVNKREPAPVPAAPASAPAAGPAVASGAGIAAPAGAPGVAPPRPGGRQTSGGDHKALSTSGEDTLSDSDDEDDEEEDEEEEIDVVTVEKRRSSSNTKAVTTFTITVRPKNAALGPGRAQSSELILKRCLPIHQQHNYAAPSPYVESEDAPPQKKIKSEASPRPLKSVIPPKAKSLSPRNSDSEDSERRRNHNILERQRRNDLRSSFLTLRDHVPELVKNEKAAKVVILKKATEYVHSLQAEEHQLLLEKEKLQARQQQLLKKIEHARTC
partner: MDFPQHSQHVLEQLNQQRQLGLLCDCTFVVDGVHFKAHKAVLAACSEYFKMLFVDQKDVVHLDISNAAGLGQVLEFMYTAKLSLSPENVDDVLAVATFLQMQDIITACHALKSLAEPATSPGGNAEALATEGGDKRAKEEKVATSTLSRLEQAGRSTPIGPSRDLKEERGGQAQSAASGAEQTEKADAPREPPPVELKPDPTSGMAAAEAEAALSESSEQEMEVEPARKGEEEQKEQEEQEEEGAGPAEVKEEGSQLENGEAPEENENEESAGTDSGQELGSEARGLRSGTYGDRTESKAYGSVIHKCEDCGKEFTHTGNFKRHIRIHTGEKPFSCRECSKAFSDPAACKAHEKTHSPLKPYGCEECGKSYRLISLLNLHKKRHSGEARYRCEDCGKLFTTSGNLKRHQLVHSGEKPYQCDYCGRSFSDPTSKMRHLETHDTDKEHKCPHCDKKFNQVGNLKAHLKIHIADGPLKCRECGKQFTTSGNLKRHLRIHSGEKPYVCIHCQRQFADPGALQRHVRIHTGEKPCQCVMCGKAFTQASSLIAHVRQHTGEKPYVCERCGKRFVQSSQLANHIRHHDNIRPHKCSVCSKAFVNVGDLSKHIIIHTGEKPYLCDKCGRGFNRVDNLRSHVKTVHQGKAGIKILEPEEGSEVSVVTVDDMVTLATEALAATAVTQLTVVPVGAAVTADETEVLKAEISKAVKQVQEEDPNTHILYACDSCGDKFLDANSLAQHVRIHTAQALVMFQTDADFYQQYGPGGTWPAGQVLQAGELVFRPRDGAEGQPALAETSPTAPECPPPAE

Variants of: B1
Conditions: with zbt17_human ZBTB17, Q13105

Row | effect of a mutation on the interaction | Variant
1 | decreasing interaction strength | V421D
